Source: patent US20080292609A1, “Use of Arginase in Combination with 5FU and Other Compounds for Treatment of Human Malignancies” (priority 2007, published 2008)

B1: arginase: Recombinant human Arginase I with N-terminal 6xHis tag (SEQ ID NO: 3), produced in B. subtilis LLC101 (protein, listed as Homo sapiens)
chain: MHHHHHHMSAKSRTIGIIGAPFSKGQPRGGVEEGPTVLRKAGLLEKLKEQECDVKDYGDLPFADIPNDSPFQIVKNPRSVGKASEQLAGKVAQVKKNGRISLVLGGDHSLAIGSISGHARVHPDLGVIWVDAHTDINTPLTTTSGNLHGQPVSFLLKELKGKIPDVPGFSWVTPCISAKDIVYIGLRDVDPGEHYILKTLGIKYFSMTEVDRLGIGKVMEETLSYLLGRKKRPIHLSFDVDGLDPSFTPATGTPVVGGLTYREGLYITEEIYKTGLLSGLDIMEVNPSLGKTPEEVTRTVNTAVAITLACFGLAREGNHKPIDYLNPPK
modifications: N-terminal 6xHis tag
B2: pegylated Arginase: Arginase I modified by pegylation with mPEG-SPA MW 5,000 to increase stability and minimize immunoreactivity (protein, UniProt P05089 1-322, looked up)
Arginase-1: MSAKSRTIGIIGAPFSKGQPRGGVEEGPTVLRKAGLLEKLKEQECDVKDYGDLPFADIPNDSPFQIVKNPRSVGKASEQLAGKVAEVKKNGRISLVLGGDHSLAIGSISGHARVHPDLGVIWVDAHTDINTPLTTTSGNLHGQPVSFLLKELKGKIPDVPGFSWVTPCISAKDIVYIGLRDVDPGEHYILKTLGIKYFSMTEVDRLGIGKVMEETLSYLLGRKKRPIHLSFDVDGLDPSFTPATGTPVVGGLTYREGLYITEEIYKTGLLSGLDIMEVNPSLGKTPEEVTRTVNTAVAITLACFGLAREGNHKPIDYLNPPK
modifications: mPEG-SPA 5 kDa

Assays:
[1] = Arginase specific activity; assay type: biochemical; conditions: purified arginase sample, or after pegylation with mPEG-SPA MW 5,000 (mole ratio 1:50)
Experimental: The purified Arginase as prepared using the methods described above was used for pegylation. Using the previous examples to illustrate the method, an arginase sample with specific activity=518 I.U./mg was dissolved in PBS buffer before carrying out pegylation.
The mPEG-SPA (cat. no. 2M4MOH01, Nektar, USA), MW 5,000 (5.82 g) was added into 555 ml of the purified Arginase (813.64 mg, 1.466 mg/ml) solution slowly in a 1 L beaker and then stirred for 2 h 40 min at room temperature (mole ratio of Arginase:mPEG-SPA=1:50). The mixture was then dialyzed extensively by ultra-dialysis against 15 L of PBS buffer using the F50(S) capillary dialyzer (Fresenius Medical Care, Bad Homburg, Germany) to remove all the unincorporated PEG. The mPEG-SPA uses amino groups of lysines and the N-terminus of the protein as the site of modification. In this example, the measured specific activity of the pegylated Arginase was as high as 592 I.U./mg.

[2] = ½-life determination of pegylated Arginase in vitro in human blood plasma; assay type: in vitro ADME; conditions: 37° C., 0.24 mg/ml pegylated Arginase
Experimental: As used herein, the term “half-life” (½-life) refers to the time that would be required for the concentration of the Arginase in human plasma in vitro, to fall by half.
Purified Arginase (1 mg) was dissolved in 1 ml of 125 mM borate buffer solution (pH 8.3) on ice. Activated PEG (mPEG-SPA, MW 5,000) (7.14 mg) was added into the protein solution slowly at a mole ratio of Arginase:PEG=1:50. The mixture was stirred on ice for 2.5 h.
Pegylated Arginase (305.6 μl) at a concentration of 1 mg/ml was added into human plasma (1 ml) and the final concentration of pegylated Arginase was 0.24 mg/ml. The mixture was divided into 20 aliquots in eppendorf tubes (65 μl mixture in each eppendorf tube) and then incubated at 37° C. A 1-2 μl portion of the mixture from each eppendorf tube was used to test the Arginase activity. In this example, the ½-life was determined to be approximately 3 days. It took about 3 days to reduce the relative activity from 100% to 50%.

Row | Molecule | specific activity [1] [I.U./mg] | ½-life (time for relative Arginase activity to fall from 100% to 50%) [2]
1 | B1 | 518 | –
2 | B2 | 592 | approximately 3 days
